{"source": "patent US20230226223A1", "about": "(SOLA BIOSCIENCES, published 2023)"}
{"biological_target": "GFP-HTTQ74 reporter construct", "test": "cell-based or functional assay", "units": {"Reduction of Aggregation (%), filter trap assay": "%"}}
{"binder": "Construct 43, JB1-QBP1-QBP1 (10) (designed binder) MGKDYYQTLGLARGASDEEIKRAYRRQALRYHPDKNKEPGAEEKFKEIAEAYDVLSDPRKREIFDRYGEEGLKGSSNWKWWPGIFDGGGGSGGGGSSNWKWWPGIFDLE", "Reduction of Aggregation (%), filter trap assay": 99.5}
{"binder": "Construct 44, JB1-QBP1-QBP1 (11) (designed binder) MGKDYYQTLGLARGASDEEIKRAYRRQALRYHPDKNKEPGAEEKFKEIAEAYDVLSDPRKREIFDRYGEEGLKGSSNWKWWPGIFDEAAAKEAAAKSNWKWWPGIFDLE", "Reduction of Aggregation (%), filter trap assay": 99.6}
{"binder": "Construct 49, JB1-QBP1-QBP1 (16) (designed binder) MGKDYYQTLGLARGASDEEIKRAYRRQALRYHPDKNKEPGAEEKFKEIAEAYDVLSDPRKREIFDRYGEEGLKGSGGGGSGGGGSGGGGSGGGGSAAASNWKWWPGIFDLEGGGGSSRAAASNWKWWPGIFDLE", "Reduction of Aggregation (%), filter trap assay": 82.5}
{"binder": "Construct 50, JB1-QBP1-QBP1 (17) (designed binder) MGKDYYQTLGLARGASDEEIKRAYRRQALRYHPDKNKEPGAEEKFKEIAEAYDVLSDPRKREIFDRYGEEGLKGSGGGGSGGGGSGGGGSGGGGSAAASNWKWWPGIFDLEEAAAKSRAAASNWKWWPGIFDLE", "Reduction of Aggregation (%), filter trap assay": 90.9}
{"binder": "Construct 53, Flag-QBP1-JB1-QBP1-Flag (designed binder) MDYKDDDDKGGTGSSNWKWWPGIFDEFMGKDYYQTLGLARGASDEEIKRAYRRQALRYHPDKNKEPGAEEKFKEIAEAYDVLSDPRKREIFDRYGEEGLKGSGGGGSGGGGSGGGGSGGGGSAAASNWKWWPGIFDLESRGDYKDDDDK", "Reduction of Aggregation (%), filter trap assay": 79.9}
{"binder": "Construct 54, QBP1-JB1-QBP1 (1) (designed binder) MSNWKWWPGIFDGKDYYQTLGLARGASDEEIKRAYRRQALRYHPDKNKEPGAEEKFKEIAEAYDVLSDPRKREIFDRYGEEGLKGSSNWKWWPGIFDGDYKDDDDK", "Reduction of Aggregation (%), filter trap assay": 0}
{"binder": "Construct 55, QBP1-JB1-QBP1 (2) (designed binder) MSNWKWWPGIFDLEGKDYYQTLGLARGASDEEIKRAYRRQALRYHPDKNKEPGAEEKFKEIAEAYDVLSDPRKREIFDRYGEEGLKGSGGGSSNWKWWPGIFDLE", "Reduction of Aggregation (%), filter trap assay": 9.45}
{"binder": "Construct 35, JB1-QBP1-QBP1 (2) (designed binder) MGKDYYQTLGLARGASDEEIKRAYRRQALRYHPDKNKEPGAEEKFKEIAEAYDVLSDPRKREIFDRYGEEGLKGSSNWKWWPGIFDEAAAKSNWKWWPGIFDLE", "Reduction of Aggregation (%), filter trap assay": 97.9}
{"binder": "Construct 36, JB1-QBP1-QBP1 (3) (designed binder) MGKDYYQTLGLARGASDEEIKRAYRRQALRYHPDKNKEPGAEEKFKEIAEAYDVLSDPRKREIFDRYGEEGLKGSSNWKWWPGIFDGGGGSSNWKWWPGIFDLE", "Reduction of Aggregation (%), filter trap assay": 95.7}
{"binder": "Construct 37, JB1-QBP1-QBP1 (4) (designed binder) MGKDYYQTLGLARGASDEEIKRAYRRQALRYHPDKNKEPGAEEKFKEIAEAYDVLSDPRKREIFDRYGEEGLKGSGGGGSSNWKWWPGIFDEAAAKSNWKWWPGIFDLE", "Reduction of Aggregation (%), filter trap assay": 97}
{"binder": "Construct 39, JB1-QBP1-QBP1 (6) (designed binder) MGKDYYQTLGLARGASDEEIKRAYRRQALRYHPDKNKEPGAEEKFKEIAEAYDVLSDPRKREIFDRYGEEGLKGSEAAAKSNWKWWPGIFDEAAAKSNWKWWPGIFDLE", "Reduction of Aggregation (%), filter trap assay": 98.1}
{"binder": "Construct 40, JB1-QBP1-QBP1 (7) (designed binder) MGKDYYQTLGLARGASDEEIKRAYRRQALRYHPDKNKEPGAEEKFKEIAEAYDVLSDPRKREIFDRYGEEGLKGSEAAAKSNWKWWPGIFDGGGGSSNWKWWPGIFDLE", "Reduction of Aggregation (%), filter trap assay": 96}
{"binder": "Construct 38, JB1-QBP1-QBP1 (5) (designed binder) MGKDYYQTLGLARGASDEEIKRAYRRQALRYHPDKNKEPGAEEKFKEIAEAYDVLSDPRKREIFDRYGEEGLKGSGGGGSSNWKWWPGIFDGGGGSSNWKWWPGIFDLE", "Reduction of Aggregation (%), filter trap assay": 96.9}
{"binder": "Construct 48, JB1-QBP1-QBP1 (15) (designed binder) MGKDYYQTLGLARGASDEEIKRAYRRQALRYHPDKNKEPGAEEKFKEIAEAYDVLSDPRKREIFDRYGEEGLKGSEAAAKSNWKWWPGIFDEAAAKEAAAKSNWKWWPGIFDLE", "Reduction of Aggregation (%), filter trap assay": 100}
{"binder": "Construct 45, JB1-QBP1-QBP1 (12) (designed binder) MGKDYYQTLGLARGASDEEIKRAYRRQALRYHPDKNKEPGAEEKFKEIAEAYDVLSDPRKREIFDRYGEEGLKGSGGGGSSNWKWWPGIFDGGGGSGGGGSSNWKWWPGIFDLE", "Reduction of Aggregation (%), filter trap assay": 91.1}
{"binder": "Construct 47, JB1-QBP1-QBP1 (14) (designed binder) MGKDYYQTLGLARGASDEEIKRAYRRQALRYHPDKNKEPGAEEKFKEIAEAYDVLSDPRKREIFDRYGEEGLKGSEAAAKSNWKWWPGIFDGGGGSGGGGSSNWKWWPGIFDLE", "Reduction of Aggregation (%), filter trap assay": 99.7}
{"binder": "Construct 46, JB1-QBP1-QBP1 (13) (designed binder) MGKDYYQTLGLARGASDEEIKRAYRRQALRYHPDKNKEPGAEEKFKEIAEAYDVLSDPRKREIFDRYGEEGLKGSGGGGSSNWKWWPGIFDEAAAKEAAAKSNWKWWPGIFDLE", "Reduction of Aggregation (%), filter trap assay": 100}
{"binder": "Construct 51, JB1-QBP1-QBP1 (18) (designed binder) MGKDYYQTLGLARGASDEEIKRAYRRQALRYHPDKNKEPGAEEKFKEIAEAYDVLSDPRKREIFDRYGEEGLKGSEAAAKSNWKWWPGIFDLEGGGGSSNWKWWPGIFDLE", "Reduction of Aggregation (%), filter trap assay": 96.5}
{"binder": "Construct 52, JB1-QBP1-QBP1 (19) (designed binder) MGKDYYQTLGLARGASDEEIKRAYRRQALRYHPDKNKEPGAEEKFKEIAEAYDVLSDPRKREIFDRYGEEGLKGSGGGGSSNWKWWPGIFDLEGGGGSSNWKWWPGIFDLE", "Reduction of Aggregation (%), filter trap assay": 96.9}
{"binder": "Construct 57, JB1-QBP1-JB1-QBP1 (designed binder) MGKDYYQTLGLARGASDEEIKRAYRRQALRYHPDKNKEPGAEEKFKEIAEAYDVLSDPRKREIFDRYGEEGLKGSGSSNWKWWPGIFDEFMGKDYYQTLGLARGASDEEIKRAYRRQALRYHPDKNKEPGAEEKFKEIAEAYDVLSDPRKREIFDRYGEEGLKGSGGGGSGGGGSGGGGSGGGGSAAASNWKWWPGIFDLESRGDYKDDDDK", "Reduction of Aggregation (%), filter trap assay": 94.1}
{"binder": "Construct 56, JB1-JB1-QBP1 (designed binder) MGKDYYQTLGLARGASDEEIKRAYRRQALRYHPDKNKEPGAEEKFKEIAEAYDVLSDPRKREIFDRYGEEGLKGSGSEFMGKDYYQTLGLARGASDEEIKRAYRRQALRYHPDKNKEPGAEEKFKEIAEAYDVLSDPRKREIFDRYGEEGLKGSGGGGSGGGGSGGGGSGGGGSAAASNWKWWPGIFDLESRGDYKDDDDK", "Reduction of Aggregation (%), filter trap assay": 68.5}
{"binder": "Construct 41, JB1-QBP1-QBP1 (8) (designed binder) MGKDYYQTLGLARGASDEEIKRAYRRQALRYHPDKNKEPGAEEKFKEIAEAYDVLSDPRKREIFDRYGEEGLKGSEAAAKSNWKWWPGIFDEAAAKSNWKWWPGIFD", "Reduction of Aggregation (%), filter trap assay": 91.1}
{"binder": "Construct 42, JB1-QBP1-QBP1 (9) (designed binder) MGKDYYQTLGLARGASDEEIKRAYRRQALRYHPDKNKEPGAEEKFKEIAEAYDVLSDPRKREIFDRYGEEGLKGSEAAAKSNWKWWPGIFDGGGGSSNWKWWPGIFD", "Reduction of Aggregation (%), filter trap assay": 87}
{"biological_target": "GFP-HTTQ74 reporter construct", "test": "cell-based or functional assay", "remark": "another data set of the same source", "units": {"% Aggregation (relative to Q74 alone), filter trap assay": "%"}}
{"binder": "Construct 10, JB1(19-43)-2XQBP1 (designed binder) MGTGSEFEIKRAYRRQALRYHPDKNKEPGAEEDIGGGGSGGGGSGGGGSGGGGSAAASNWKWWPGIFDGLESNWKWWPGIFD", "% Aggregation (relative to Q74 alone), filter trap assay": 91}
{"binder": "Construct 8, JB1(P33Q)-2XQBP1 (designed binder) MGKDYYQTLGLARGASDEEIKRAYRRQALRYHQDKNKEPGAEEKFKEIAEAYDVLSDPRKREIFDRYGEEGLKGSDIGGGGSGGGGSGGGGSGGGGSAAASNWKWWPGIFDGLESNWKWWPGIFD", "% Aggregation (relative to Q74 alone), filter trap assay": 93}
{"binder": "Construct 9, JB1(20-31)-2XQBP1 (designed binder) MGTGSEFIKRAYRRQALRYDIGGGGSGGGGSGGGGSGGGGSAAASNWKWWPGIFDGLESNWKWWPGIFD", "% Aggregation (relative to Q74 alone), filter trap assay": 91}
{"biological_target": "GFP-HTTQ74 reporter construct", "test": "cell-based or functional assay", "remark": "another data set of the same source", "units": {"% Aggregation (relative to Q74 alone), filter trap assay": "%"}}
{"binder": "Construct 7, QBP1-JB1-2XQBP1 (designed binder) MGKPIPNPLLGLDSTGTGSSNWKWWPGIFDEFMGKDYYQTLGLARGASDEEIKRAYRRQALRYHPDKNKEPGAEEKFKEIAEAYDVLSDPRKREIFDRYGEEGLKGSDIGGGGSGGGGSGGGGSGGGGSAAASNWKWWPGIFDGLESNWKWWPGIFD", "% Aggregation (relative to Q74 alone), filter trap assay": 23}
{"binder": "Construct 2, JB1-QBP1 (designed binder) MGKDYYQTLGLARGASDEEIKRAYRRQALRYHPDKNKEPGAEEKFKEIAEAYDVLSDPRKREIFDRYGEEGLKGSDIGGGGSGGGGSGGGGSGGGGSAAASNWKWWPGIFDGLE", "% Aggregation (relative to Q74 alone), filter trap assay": 75.9}
{"binder": "Construct 5, JB1-3XQBP1 (designed binder) MGKDYYQTLGLARGASDEEIKRAYRRQALRYHPDKNKEPGAEEKFKEIAEAYDVLSDPRKREIFDRYGEEGLKGSGGGGSGGGGSGGGGSGGGGSGSSNWKWWPGIAAASNWKWWPGILESNWKWWPGIFD", "% Aggregation (relative to Q74 alone), filter trap assay": 41.1}
{"binder": "Construct 6, QBP1-JB1-QBP1 (designed binder) MGKPIPNPLLGLDSTGTGSSNWKWWPGIFDEFMGKDYYQTLGLARGASDEEIKRAYRRQALRYHPDKNKEPGAEEKFKEIAEAYDVLSDPRKREIFDRYGEEGLKGSDIGGGGSGGGGSGGGGSGGGGSAAASNWKWWPGIFDGLE", "% Aggregation (relative to Q74 alone), filter trap assay": 5.62}
{"binder": "Construct 1, JB1 (other) MGKDYYQTLGLARGASDEEIKRAYRRQALRYHPDKNKEPGAEEKFKEIAEAYDVLSDPRKREIFDRYGEEGLKGSDIAAALESRDYKDDDDK", "% Aggregation (relative to Q74 alone), filter trap assay": 127}
{"binder": "Construct 3, QBP1-JB1 (designed binder) MGKPIPNPLLGLDSTGTGSSNWKWWPGIFDEFMGKDYYQTLGLARGASDEEIKRAYRRQALRYHPDKNKEPGAEEKFKEIAEAYDVLSDPRKREIFDRYGEEGLKGSDIAAALE", "% Aggregation (relative to Q74 alone), filter trap assay": 67.5}
